{"source": "the supplement of paper PMC12855868", "parents": {"B1": {"name": "library; numbered along this chain (parent)", "chain": "MAAAGGARLLRAASAVLGGPAGRWLHHAGSRAGSSGLLRNRGPGGSAEASRSLSVSARARSSSEDKITVHFINRDGETLTTKGKVGDSLLDVVVENNLDIDGFGACEGTLACSTCHLIFEDHIYEKLDAITDEENDMLDLAYGLTDRSRLGCQICLTKSMDNMTVRVPETVADARQSIDVGKTS"}}, "variants_of": "B1", "assay": "scaled log2 fold change in cell abundance, elesclomol vs control (0 = silent mean, 1 = nonsense mean) (scaled log2 ratio); higher = higher viability under elesclomol (loss of FDX1 cuproptosis function)", "settings": "glucose 10 mM", "experimental": "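Deep mutational scan of full-length human FDX1: a pooled saturation-mutagenesis ORF library (every residue 2-184 mutated to all 19 amino acids plus stop, and silent codons where available) was expressed by lentivirus in FDX1-knockout ABC1 (14 days) or HEK293T (11 days) cells grown with elesclomol (ES) or DMSO control. Variant abundance came from ORF sequencing. The log2 fold change (ES vs control, mean of duplicates) was centred on the silent-variant mean (0) and scaled to the nonsense-variant mean (1). Higher values mean greater viability under ES, i.e. loss of FDX1 function in cuproptosis.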", "key": {"[1]": {"settings": "with ABC1 FDX1 KO, elesclomol 5 nM, 14 days"}, "[2]": {"settings": "with HEK293T FDX1 KO, elesclomol 40 nM, 11 days"}}, "data": [{"variant": "MAAAGGARLLRAASAVLGGPAGRWLHHAGRRAGSSGLLRNRGPGGSAEASRSLSVSARARSSSEDKITVHFINRDGETLTTKGKVGDSLLDVVVENNLDIDGFGACEGTLACSTCHLIFEDHIYEKLDAITDEENDMLDLAYGLTDRSRLGCQICLTKSMDNMTVRVPETVADARQSIDVGKTS", "values": [{"measurement": "scaled log2 fold change", "setting": "[1]", "value": 0.119}]}, {"variant": "MAAAGGARLLRAASAVLGGPAGRWLHHAGYRAGSSGLLRNRGPGGSAEASRSLSVSARARSSSEDKITVHFINRDGETLTTKGKVGDSLLDVVVENNLDIDGFGACEGTLACSTCHLIFEDHIYEKLDAITDEENDMLDLAYGLTDRSRLGCQICLTKSMDNMTVRVPETVADARQSIDVGKTS", "values": [{"measurement": "scaled log2 fold change", "setting": "[1]", "value": -0.00883}, {"measurement": "scaled log2 fold change", "setting": "[2]", "value": -0.262}]}, {"variant": "MAAAGGARLLRAASAVLGGPAGRWLHHAGLRAGSSGLLRNRGPGGSAEASRSLSVSARARSSSEDKITVHFINRDGETLTTKGKVGDSLLDVVVENNLDIDGFGACEGTLACSTCHLIFEDHIYEKLDAITDEENDMLDLAYGLTDRSRLGCQICLTKSMDNMTVRVPETVADARQSIDVGKTS", "values": [{"measurement": "scaled log2 fold change", "setting": "[1]", "value": 0.0325}]}, {"variant": "MAAAGGARLLRAASAVLGGPAGRWLHHAGGRAGSSGLLRNRGPGGSAEASRSLSVSARARSSSEDKITVHFINRDGETLTTKGKVGDSLLDVVVENNLDIDGFGACEGTLACSTCHLIFEDHIYEKLDAITDEENDMLDLAYGLTDRSRLGCQICLTKSMDNMTVRVPETVADARQSIDVGKTS", "values": [{"measurement": "scaled log2 fold change", "setting": "[1]", "value": -0.403}, {"measurement": "scaled log2 fold change", "setting": "[2]", "value": 0.208}]}, {"variant": "MAAAGGARLLRAASAVLGGPAGRWLHHAGQRAGSSGLLRNRGPGGSAEASRSLSVSARARSSSEDKITVHFINRDGETLTTKGKVGDSLLDVVVENNLDIDGFGACEGTLACSTCHLIFEDHIYEKLDAITDEENDMLDLAYGLTDRSRLGCQICLTKSMDNMTVRVPETVADARQSIDVGKTS", "values": [{"measurement": "scaled log2 fold change", "setting": "[1]", "value": 0.345}, {"measurement": "scaled log2 fold change", "setting": "[2]", "value": -0.23}]}, {"variant": "MAAAGGARLLRAASAVLGGPAGRWLHHAGARAGSSGLLRNRGPGGSAEASRSLSVSARARSSSEDKITVHFINRDGETLTTKGKVGDSLLDVVVENNLDIDGFGACEGTLACSTCHLIFEDHIYEKLDAITDEENDMLDLAYGLTDRSRLGCQICLTKSMDNMTVRVPETVADARQSIDVGKTS", "values": [{"measurement": "scaled log2 fold change", "setting": "[1]", "value": 0.166}, {"measurement": "scaled log2 fold change", "setting": "[2]", "value": -0.0965}]}, {"variant": "MAAAGGARLLRAASAVLGGPAGRWLHHAGERAGSSGLLRNRGPGGSAEASRSLSVSARARSSSEDKITVHFINRDGETLTTKGKVGDSLLDVVVENNLDIDGFGACEGTLACSTCHLIFEDHIYEKLDAITDEENDMLDLAYGLTDRSRLGCQICLTKSMDNMTVRVPETVADARQSIDVGKTS", "values": [{"measurement": "scaled log2 fold change", "setting": "[1]", "value": 0.181}, {"measurement": "scaled log2 fold change", "setting": "[2]", "value": -0.188}]}, {"variant": "MAAAGGARLLRAASAVLGGPAGRWLHHAGCRAGSSGLLRNRGPGGSAEASRSLSVSARARSSSEDKITVHFINRDGETLTTKGKVGDSLLDVVVENNLDIDGFGACEGTLACSTCHLIFEDHIYEKLDAITDEENDMLDLAYGLTDRSRLGCQICLTKSMDNMTVRVPETVADARQSIDVGKTS", "values": [{"measurement": "scaled log2 fold change", "setting": "[1]", "value": 0.348}, {"measurement": "scaled log2 fold change", "setting": "[2]", "value": -0.559}]}, {"variant": "MAAAGGARLLRAASAVLGGPAGRWLHHAGVRAGSSGLLRNRGPGGSAEASRSLSVSARARSSSEDKITVHFINRDGETLTTKGKVGDSLLDVVVENNLDIDGFGACEGTLACSTCHLIFEDHIYEKLDAITDEENDMLDLAYGLTDRSRLGCQICLTKSMDNMTVRVPETVADARQSIDVGKTS", "values": [{"measurement": "scaled log2 fold change", "setting": "[1]", "value": 0.222}, {"measurement": "scaled log2 fold change", "setting": "[2]", "value": -0.701}]}, {"variant": "MAAAGGARLLRAASAVLGGPAGRWLHHAGDRAGSSGLLRNRGPGGSAEASRSLSVSARARSSSEDKITVHFINRDGETLTTKGKVGDSLLDVVVENNLDIDGFGACEGTLACSTCHLIFEDHIYEKLDAITDEENDMLDLAYGLTDRSRLGCQICLTKSMDNMTVRVPETVADARQSIDVGKTS", "values": [{"measurement": "scaled log2 fold change", "setting": "[1]", "value": 0.413}, {"measurement": "scaled log2 fold change", "setting": "[2]", "value": 0.89}]}, {"variant": "MAAAGGARLLRAASAVLGGPAGRWLHHAGNRAGSSGLLRNRGPGGSAEASRSLSVSARARSSSEDKITVHFINRDGETLTTKGKVGDSLLDVVVENNLDIDGFGACEGTLACSTCHLIFEDHIYEKLDAITDEENDMLDLAYGLTDRSRLGCQICLTKSMDNMTVRVPETVADARQSIDVGKTS", "values": [{"measurement": "scaled log2 fold change", "setting": "[1]", "value": 0.26}, {"measurement": "scaled log2 fold change", "setting": "[2]", "value": -0.64}]}, {"variant": "MAAAGGARLLRAASAVLGGPAGRWLHHAGIRAGSSGLLRNRGPGGSAEASRSLSVSARARSSSEDKITVHFINRDGETLTTKGKVGDSLLDVVVENNLDIDGFGACEGTLACSTCHLIFEDHIYEKLDAITDEENDMLDLAYGLTDRSRLGCQICLTKSMDNMTVRVPETVADARQSIDVGKTS", "values": [{"measurement": "scaled log2 fold change", "setting": "[1]", "value": 0.0124}, {"measurement": "scaled log2 fold change", "setting": "[2]", "value": -0.232}]}, {"variant": "MAAAGGARLLRAASAVLGGPAGRWLHHAGKRAGSSGLLRNRGPGGSAEASRSLSVSARARSSSEDKITVHFINRDGETLTTKGKVGDSLLDVVVENNLDIDGFGACEGTLACSTCHLIFEDHIYEKLDAITDEENDMLDLAYGLTDRSRLGCQICLTKSMDNMTVRVPETVADARQSIDVGKTS", "values": [{"measurement": "scaled log2 fold change", "setting": "[1]", "value": 0.428}, {"measurement": "scaled log2 fold change", "setting": "[2]", "value": -0.721}]}, {"variant": "MAAAGGARLLRAASAVLGGPAGRWLHHAGFRAGSSGLLRNRGPGGSAEASRSLSVSARARSSSEDKITVHFINRDGETLTTKGKVGDSLLDVVVENNLDIDGFGACEGTLACSTCHLIFEDHIYEKLDAITDEENDMLDLAYGLTDRSRLGCQICLTKSMDNMTVRVPETVADARQSIDVGKTS", "values": [{"measurement": "scaled log2 fold change", "setting": "[1]", "value": -0.244}, {"measurement": "scaled log2 fold change", "setting": "[2]", "value": -0.2}]}, {"variant": "MAAAGGARLLRAASAVLGGPAGRWLHHAGMRAGSSGLLRNRGPGGSAEASRSLSVSARARSSSEDKITVHFINRDGETLTTKGKVGDSLLDVVVENNLDIDGFGACEGTLACSTCHLIFEDHIYEKLDAITDEENDMLDLAYGLTDRSRLGCQICLTKSMDNMTVRVPETVADARQSIDVGKTS", "values": [{"measurement": "scaled log2 fold change", "setting": "[1]", "value": 0.423}, {"measurement": "scaled log2 fold change", "setting": "[2]", "value": -0.121}]}, {"variant": "MAAAGGARLLRAASAVLGGPAGRWLHHAGTRAGSSGLLRNRGPGGSAEASRSLSVSARARSSSEDKITVHFINRDGETLTTKGKVGDSLLDVVVENNLDIDGFGACEGTLACSTCHLIFEDHIYEKLDAITDEENDMLDLAYGLTDRSRLGCQICLTKSMDNMTVRVPETVADARQSIDVGKTS", "values": [{"measurement": "scaled log2 fold change", "setting": "[1]", "value": -0.784}, {"measurement": "scaled log2 fold change", "setting": "[2]", "value": -0.554}]}, {"variant": "MAAAGGARLLRAASAVLGGPAGRWLHHAGHRAGSSGLLRNRGPGGSAEASRSLSVSARARSSSEDKITVHFINRDGETLTTKGKVGDSLLDVVVENNLDIDGFGACEGTLACSTCHLIFEDHIYEKLDAITDEENDMLDLAYGLTDRSRLGCQICLTKSMDNMTVRVPETVADARQSIDVGKTS", "values": [{"measurement": "scaled log2 fold change", "setting": "[1]", "value": 0.109}, {"measurement": "scaled log2 fold change", "setting": "[2]", "value": 0.106}]}]}
